# Literature values in paper PMC6935268.
# Biological target: CD80 (Homo sapiens) (UniProt P33681)
# UniProt P33681, sequence (P33681 35-242): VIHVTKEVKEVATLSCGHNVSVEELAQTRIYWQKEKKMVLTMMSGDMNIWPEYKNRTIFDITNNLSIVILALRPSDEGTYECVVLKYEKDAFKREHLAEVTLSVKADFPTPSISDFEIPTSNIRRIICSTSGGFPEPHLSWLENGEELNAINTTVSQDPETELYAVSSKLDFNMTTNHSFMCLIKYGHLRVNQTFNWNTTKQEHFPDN
substance,measurement,value
PD-L1 (from UniProt Q9NZQ7),Kd,17.8 µM
